Data from US20080220446A1, “Method for Detecting and/or Removing Protein and/or Peptide Comprising a Cross-Beta Structure From an Aqueous Solution Comprising a Protein” (priority 2005, published 2008).

Experiments:
[1] = molecular target: T1, tPA (Homo sapiens, UniProt P00750); test: tPA ELISA with coated protein therapeutics; format: binding; conditions: for binding of tPA: ELISA, stored at the recommended temperature of 4° C.
Experimental: (§1) Formulated protein therapeutics were obtained from the local hospital pharmacy and were used as supplied by the manufacturers. […] Lyophilized therapeutics were dissolved according to the manufacturers recommendations. GH, zinc-insulin, Cealb and gelatin were stored at −20, 4, room temperature, 37 and 65° C. Other protein therapeutics were only kept at 4° C., and assayed for the presence of cross-β structure at shown time points. Enhancement in fluorescence of ThT and Congo red was measured with all formulated protein therapeutics. For this purpose, proteins were diluted to the indicated concentrations. […] Zinc-insulin was diluted tenfold in the activation assay, GH was diluted to a final concentration of 500 μg ml^−1. Activation of factor XII and prekallikrein by the therapeutics was tested in the chromogenic factor XII assay (see above). […] After coating, plates were blocked with Blocking Reagent (Roche Diagnostics, Almere, The Netherlands).

[2] = molecular target: T1, tPA; test: Plasminogen-activation assay (tPA activation, S-2251); format: biochemical
Experimental: Plasmin (Pls) activity was assayed as described^16. Peptides and proteins that were tested for their stimulatory ability were regularly used at 100 μg ml^−1. […] Chromogenic substrate S-2251 (Chromogenix, Instrumentation Laboratory SpA, Milano, Italy) was used to measure Pls activity. Conversion of zymogen factor XII (#233490, Calbiochem, EMD Biosciences, Inc., San Diego, Calif.) to proteolytically active factor XII (factor XIIa) was assayed by measurement of the conversion of chromogenic substrate Chromozym-PK (Roche Diagnostics, Almere, The Netherlands) by kallikrein. Chromozym-PK was used at a concentration of 0.3 mM. Factor XII, human plasma prekallikrein (#529583, Calbiochem) and human plasma cofactor high-molecular weight kininogen (#422686, Calbiochem) were used at concentrations of 1 μg ml^−1. […] Assays were performed using microtiter plates (Costar, Cambridge, Mass., USA). Peptides and proteins were tested for their ability to activate factor XII. 150 μg ml^−1 kaolin, an established activator of factor XII was used as positive control and solvent (H2O) as negative control. The conversion of Chromozym-PK was recorded kinetically at 37° C. for at least 60 minutes. Assays were done in duplicate.
as §1
To prepare structurally altered ovalbumin (OVA) with amyloid cross-β structures, purified OVA (Sigma, A-7641, lot 071k7094) was heated to 85° C. One mg ml^−1 OVA in 67 mM NaPi buffer pH 7.0, 100 mM NaCl, was heated for two cycles in PCR cups in a PTC-200 thermal cycler (MJ Research, Inc., Waltham, Mass., USA). In each cycle, OVA was heated from 30 to 85° C. at a rate of 5° C./min. Native OVA (nOVA) and heat-denatured OVA (dOVA) were tested in the ThT fluorescence assay and in the Plg-activation assay. In the fluorescence assay and in the Plg-activation assay, 25 and 100 μg ml^−1 nOVA and dOVA were tested, respectively. TEM images of nOVA and dOVA were taken to check for the presence of large aggregates.
MSA (#126674, Calbiochem) was dissolved in 8 M urea, 100 mM Tris-HCl pH 8.2, at 10 mg ml^−1 final concentration. Dithiothreitol (DTT) was added to a final concentration of 10 mM. Air was replaced by N2 and the solution was incubated for 2 h at room temperature. Then, the solution was transferred to ice and iodoacetamide was added from a 1 M stock to a final concentration of 20 mM. […] Alkyl-MSA was dialyzed against H2O before use. […] In the ThT-fluorescence assay 25 μg ml^−1 nMSA and alkyl-MSA were tested, and in the Plg-activation assay 100 μg ml^−1 was tested. The presence of aggregates or fibrils was analyzed using TEM.
Lyophilized sterile glucagon was dissolved at 1 mg ml^−1 in H2O with 10 mM HCl. The solution was subsequently kept at 37° C. for 24 h, at 4° C. for 14 days and again at 37° C. for 9 days. […] TEM analysis was performed to assess the presence of large multimeric structures.

[3] = molecular target: T1, tPA; test: tPA binding assay with immobilized biopharmaceuticals in an ELISA; conditions: coated 1:10, one-site binding model
Experimental: Plates were washed twice with Tris buffered saline pH 7.2 containing 0.1% Tween20 (TBST) and blocked with PBS containing 1% Tween20 for 1 hour at room temperature. […] Plates were washed five times with TBST and incubated with peroxidase labeled anti-mouse immunoglobulins (RAMPO; DAKOCytomation, Glostrup, Denmark) diluted 1:3000 in PBST for 30 minutes at room temperature. Plates were washed five times with PBS 0.1% Tween20, and stained with 100 μL/well of tetramethyl-benzidine (TMB) substrate (Biosource Europe, Nivelles, Belgium). The reaction was terminated with 50 μL/well of 2 M H2SO4 and substrate conversion was read at 450 nm on a Spectramax340 microplate reader. Curves were fitted with a one-site binding model (GraphPad Prism version 4.02 for Windows, Graphpad Software, Calif., USA) from which Kd and Bmax were determined.
(§2) Protein therapeutics were obtained from the local hospital pharmacy and analyzed within the expiry limits as stated by the manufacturers.

[4] = Congo red fluorescence enhancement by biopharmaceuticals; format: physicochemical; conditions: +/− SD; five μL of protein therapeutic
Experimental: Background signals from buffer, buffer with Congo red and protein/peptide solution without Congo red were subtracted from corresponding measurements with protein solution incubated with Congo red. Fluorescence was measured in triplicate on a Hitachi F-4500 fluorescence spectrophotometer (Ltd., Tokyo, Japan).
as §2
Fluorescence of Thioflavin T (ThT; Sigma T-3516, St. Louis, Mo., USA) and Congo red (CR; Aldrich Chemical Company Inc., Milwaukee, Wis., USA) was measured on a Hitachi F-4500 spectrophotometer at an excitation wavelength of 435 nm and emission wavelength of 485 nm for ThT and an excitation wavelength of 550 nm and emission wavelength of 595 nm for Congo red. […] Fluorescence was measured in triplicate. Background fluorescence of both protein in buffer and dye-solution were subtracted from the total fluorescence signal. Five μg/mL fibrillar amyloid-β(1-40) E22Q (Peptide Synthesis Facility of the Dutch Cancer Institute NKI, Amsterdam, The Netherlands) was used as a positive control in all fluorescence assays.

T1 sequence (P00750 36-562): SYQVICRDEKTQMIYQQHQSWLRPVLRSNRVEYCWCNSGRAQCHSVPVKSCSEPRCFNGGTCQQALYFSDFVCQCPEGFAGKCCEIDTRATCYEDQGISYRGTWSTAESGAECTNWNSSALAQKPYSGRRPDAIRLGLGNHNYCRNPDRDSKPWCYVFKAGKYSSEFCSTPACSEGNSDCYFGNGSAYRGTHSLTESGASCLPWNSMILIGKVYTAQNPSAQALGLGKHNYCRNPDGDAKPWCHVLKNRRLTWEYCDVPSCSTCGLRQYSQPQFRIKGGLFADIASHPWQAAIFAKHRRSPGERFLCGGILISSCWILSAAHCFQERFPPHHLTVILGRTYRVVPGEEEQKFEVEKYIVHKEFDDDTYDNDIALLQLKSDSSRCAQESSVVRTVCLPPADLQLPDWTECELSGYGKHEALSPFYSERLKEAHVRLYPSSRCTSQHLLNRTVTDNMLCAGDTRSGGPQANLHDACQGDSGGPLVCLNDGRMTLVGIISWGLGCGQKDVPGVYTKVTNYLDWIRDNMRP

Substance	binding of tPA [1]	Pls activity (tPA activating properties) ([2]; after storage at 65° C.)	tPA Binding Bmax [3] [OD450 nm]	Fluorescence CR [4]	Kd ([1]; tPA ELISA, immobilized protein, stored at 4° C., read-out: KD of tPA binding) [nM]	tPA activation ([2]; protein solutions stored at 4° C.)	Kd [3] [nM]
Abciximab: abciximab, an inhibitor of blood platelet aggregation (ReoPro, Centocor)	binding of tPA was established	induced Pls activity	0.5329	25 +/− 1 a.u.	–	–	–
Somatropin: human growth hormone (Genotropin, Pharmacia)	binding of tPA was established	–	0.9369	429 +/− 2 a.u.	72	induced tPA activation	9.05
